Consider two molecules from article PMC3578935, “Biochemical Characterization of CTX-M-15 from Enterobacter cloacae and Designing a Novel Non-β-Lactam-β-Lactamase Inhibitor” (PLoS ONE, 2013).

“Also recorded” adds a separate entry of the source. Like-named read-outs stand apart in the source and are kept apart here.

The subject of data set [1] is E. coli DH5α transformed with recombinant bla CTX-M-15 (pQE-2-CTX-M-15). Kind of data set: MIC by micro-dilution, β-lactams alone or with inhibitors. It is filed as cell-based. Here is the method:
E. coli DH5α and E. coli BL21 (DE3) were used for cloning and protein expression experiments, respectively. MICs were determined on E. coli DH5α transformed with cloned CTX-M-15 from Enterobacter cloacae clinical strain EC-15.
The MICs for various antibiotics alone or in combination with various inhibitors (clavulanic acid, sulbactam, tazobactam and ZINC03787097) were determined by micro-dilution method and the results were interpreted according to Clinical Laboratory Standards Institute (CLSI) guidelines. Briefly, E. coli DH5α cells transformed with CTX-M-15 was treated with increasing concentrations of the antibiotics ranging from 0.5 to 2000 µg/ml in a series of two fold dilutions. The inhibitors clavulanic acid, sulbactam and tazobactam were used at a fixed concentration of 4 µg/ml, while ZINC03787097 was used at 20 µg/ml.
(In broth dilution the organism is exposed to a series of concentrations in liquid medium.)

Data set [2] deals with T1, CTX-M-15 (Escherichia coli, UniProt Q9EXV5). Kind of data set: Enzyme inhibition kinetics (acylation/deacylation, competition with nitrocefin). Particulars: K i, determined at steady-state, competition with 100 µM nitrocefin.
Description: (§1) The parameters k +2, k +3 and K′ are the first-order acylation and deacylation constants, and the dissociation constant of the Henri-Michaelis complex, respectively.
(§2) where, v o, v t and v ss are the rates of utilization of the reporter substrate at times 0 and t, and after the steady-state has been established, respectively.
(§3) The individual parameters, k +2, k +3 and K′, were derived from the dependence of k i upon inhibitor concentration, [C], on the basis of the following equation: [drawing 10]
(§4) When the concentration of inhibitor [C] is well below K′, k i varies linearly the above equations is simplified as: [drawing 11]
(§5) The k +2/K′ value is then obtained from the slope of the line, whereas k +3 is given by the intercept at [C] = 0. Conversely, if [C] is much larger than K′ (K m+[S])/K m, then k i = k +2+k +3, and is independent of [C]
The target of data set [3] is T1, CTX-M-15. Put plainly: IC50 determination, nitrocefin hydrolysis after 5 min pre-incubation. Type of data set: biochemical, Enterobacter cloacae. The arrangement: His tag (inferred from the pQE-2 vector and Ni-NTA purification); made in house; host or cells: E. coli BL21 (DE3). The conditions noted are these: IC50, 5 min pre-incubation at 30°C; 100 µM nitrocefin. Here is the method:
The 50% inhibitory concentration (IC50) was determined as the concentration of the inhibitor that inhibited hydrolytic activity of the enzyme by 50%.

For data set [4], the target named is T1, CTX-M-15. Type of data set: biochemical, Enterobacter cloacae. The arrangement: His tag (inferred from the pQE-2 vector and Ni-NTA purification); made in house; host or cells: E. coli BL21 (DE3). The conditions noted are these: for K m for nitrocefin hydrolysis in the presence of inhibitor: 0.50 nM CTX-M-15.
In data set [5] the target is T1, CTX-M-15. Kind of data set: Stability of ZINC03787097 in the presence of CTX-M-15 (UV absorbance). It is filed as biochemical, Enterobacter cloacae. The arrangement: His tag (inferred from the pQE-2 vector and Ni-NTA purification); made in house; host or cells: E. coli BL21 (DE3). The conditions noted are these: 100 µM inhibitor, 10 nM CTX-M-15, 3600 seconds, absorbance at 283 nm and 222 nm. Here is the method:
The UV absorption spectrum (320-210 nm) of ZINC03787097 (100 µM) alone or after 3600 seconds incubation with CTX-M-15 (10 nM) was measured in 50 mM phosphate buffer, pH 7.0 at 30°C on Shimadzu UV-VIS spectrophotometer (UV-1800). The stability of ZINC03787097 in the presence of CTX-M-15 was monitored by measuring the absorbance for 3600 seconds at 283 nm and 222 nm.

In data set [6] the test system is CC(C)(O/N=C(\C(=O)N[C@@H]1C(=O)N2C(C(=O)[O-])=C(C[n+]3ccccc3)CS[C@H]12)c1csc(N)n1)C(=O)O. Put plainly: purified protein, by the assay type. The conditions noted are these: other: 50 mM phosphate buffer pH 7.0, 30°C.
Protocol: (§6) Hydrolysis of β-lactam antibiotics was detected by monitoring the variation in the absorbance due to cleavage of β-lactam ring in 50 mM phosphate buffer, pH 7.0 [28]. All the measurements were taken in triplicate on Shimadzu UV-VIS spectrophotometer (UV-1800). The reaction was performed in a total volume of 500 µl at 30°C. For dilution of the enzyme and to prevent denaturation, BSA was added to a final concentration of 20 µg/ml.
The subject of data set [7] is CC1(C)S[C@@H]2[C@H](NC(=O)[C@H](N)c3ccccc3)C(=O)N2[C@H]1C(=O)O. Put plainly: purified protein, by the assay type. Particulars: other: 50 mM phosphate buffer pH 7.0, 30°C.
Protocol: as §6
Data set [8] deals with CCN1CCN(C(=O)N[C@@H](C(=O)N[C@@H]2C(=O)N3[C@@H]2SC(C)(C)[C@@H]3C(=O)O)c2ccccc2)C(=O)C1=O. Kind of data set: purified protein, by the assay type. Particulars: other: 50 mM phosphate buffer pH 7.0, 30°C.
Protocol: as §6
The test system of data set [9] is CO/N=C(\C(=O)N[C@@H]1C(=O)N2C(C(=O)O)=C(COC(C)=O)CS[C@H]12)c1csc(N)n1. Kind of data set: purified protein, by the assay type. Particulars: other: 50 mM phosphate buffer pH 7.0, 30°C.
Protocol: as §6
The subject of data set [10] is CO/N=C(\C(=O)N[C@@H]1C(=O)N2C(C(=O)O)=C(COC(N)=O)CS[C@H]12)c1ccco1. Kind of data set: purified protein, by the assay type. Particulars: other: 50 mM phosphate buffer pH 7.0, 30°C.
Protocol: as §6
Data set [11] concerns CO/N=C(\C(=O)N[C@@H]1C(=O)N2C(C(=O)O)=C(CSc3nc(=O)c(=O)[nH]n3C)CS[C@H]12)c1csc(N)n1. Kind of data set: purified protein, by the assay type. Particulars: other: 50 mM phosphate buffer pH 7.0, 30°C.
Protocol: as §6
Data set [12] relates to C[C@]1(Cn2ccnn2)[C@H](C(=O)O)N2C(=O)C[C@H]2S1(=O)=O. Put plainly: purified protein, by the assay type. The conditions noted are these: other: slope of k i versus inhibitor concentration.
Description: as §1, §2, §3, §4, §5
In data set [13] the test system is O=C(Cc1cccs1)N[C@@H]1C(=O)N2C(C(=O)O)=C(/C=C/c3ccc([N+](=O)[O-])cc3[N+](=O)[O-])CS[C@H]12. Put plainly: purified protein, by the assay type. The conditions noted are these: other: 50 mM phosphate buffer pH 7.0, 30°C.

What is called Ki is the dissociation constant of the complex between target and ligand, obtained from inhibition or displacement. Read a high Ki as weaker binding. As usually defined, the IC50 is the concentration that gives 50% inhibition. A high value points to a need for much substance. For orientation: kcat means the number of substrate molecules converted per active site and unit of time at saturation. The term kcat/Km denotes the turnover number divided by the Michaelis constant.

On to `CC#CCC(C)C(O)C=CC1C(O)CC2Oc3c(CCCC(=O)O)cccc3C21` (stereo not shown) [ZINC03787097], for which the “fold lowering of MIC of cefotaxime in combination with inhibitor” value in [1] (DH5α transformed with bla CTX-M-15) worked out at 2 fold. Moreover, in data set [1] (ZINC03787097 at 20 µg/ml), the “effect on MICs of antibiotics of cephalosporin group” value is on record as “reduced in the presence of ZINC03787097 to a level observed in the case of antibiotic-sulbactam combination”. The same molecule returned an inhibition constant Ki in data set [2] of 388 nM. Besides, half-maximal inhibition in data set [3] (IC50) required 180 nM. Moreover, the “K m for nitrocefin hydrolysis in the presence of inhibitor” value amounted to 67 µM in [4] (0.25 µM ZINC03787097), 94 µM in data set [4] (0.50 µM ZINC03787097) and 96 µM in data set [4] (0.75 µM ZINC03787097). Also, in data set [4] (Lineweaver-Burg plot), the mode of inhibition result was “reversible inhibitor; also recorded: competitive inhibition”. Further, the “Vmax of nitrocefin hydrolysis” value in data set [4] (similar at 0.00-0.75 µM ZINC03787097) stood at 3.22e-07 M/s. For the same molecule, the “hydrolysis of inhibitor by CTX-M-15” value in [5] is listed as “no detectable hydrolysis; also recorded: negligible hydrolysis”.

With CTX-M-15 (Escherichia coli), the kcat in [6] was 1.51 ± 0.03 s⁻¹; in [7], 57 ± 3 s⁻¹; in [8], 58 ± 4 s⁻¹; in [9], 222 ± 7 s⁻¹; in data set [10], 87 ± 2 s⁻¹; in [11], 82 ± 5 s⁻¹. The kcat in data set [13] came to 582 s⁻¹. The catalytic efficiency (kcat/Km) was 1200 M⁻¹ s⁻¹ in [6]; 3.8e+06 M⁻¹ s⁻¹ in [7]; 1.8e+06 M⁻¹ s⁻¹ in data set [8]; 3.7e+06 M⁻¹ s⁻¹ in [9]; 3e+06 M⁻¹ s⁻¹ in [10]; 2.5e+06 M⁻¹ s⁻¹ in data set [11]. Moreover, the kcat/Km in data set [12] was 440000 M⁻¹ s⁻¹; in [13], 1.66e+07 M⁻¹ s⁻¹.
